The values below come from PMC10497535, “Identification of the SNARE complex that mediates the fusion of multivesicular bodies with the plasma membrane in exosome secretion” (Journal of Extracellular Vesicles, 2023).

The target of experiment [1] is T1, Syx-4 (residues 1-274, the cytoplasmic fragment) (human, UniProt Q12846 1-274).
T1 construct: syntaxin-4, human, cytoplasmic fragment, residues 1-274; Cloned into pET28a; 'purified as previously described'; also called cytoplasmic fragment of Syx-4; source: E. coli BL21 DE3, purified (Nickel-NTA)
Kind of experiment: pull-down; 2 μM GST-VAMP-7 SNARE motif with 3 μM Syx-4 (1-274) and/or 3 μM SN-23 on glutathione Sepharose 4B, 4°C, 5 h; washed with 20 mM Tris-HCl pH 8.0, 150 mM NaCl, 1% Triton X-100; SDS-PAGE. The following applies: both partners purified.

For experiment [2], the target named is T2, recombinant SN-23, mutant of full-length human SNAP-23 (C79A, C80A, C83A, C85A, C87A, C112A) (human, UniProt O00161 1-211, C79A | C80A | C83A | C85A | C87A | C112A).
T2 construct: SNAP-23, human, full length (residues 1-211) with six cysteines changed to alanine; Cloned into pET28a; source: E. coli BL21 DE3, purified (Nickel-NTA)
T2 sequence (looked up): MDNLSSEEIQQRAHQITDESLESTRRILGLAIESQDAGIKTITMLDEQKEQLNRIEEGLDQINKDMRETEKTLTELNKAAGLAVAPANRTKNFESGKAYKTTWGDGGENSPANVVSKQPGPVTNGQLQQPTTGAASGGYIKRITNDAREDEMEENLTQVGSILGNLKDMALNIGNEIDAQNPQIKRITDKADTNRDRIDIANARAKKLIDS
The experiment is described as above. The note with it: both partners purified.

B1: GST-tagged VAMP-7 SNARE motif (residues 125-185) (domain or fragment, human, UniProt P51809 125-185, looked up)
chain: KVMETQAQVDELKGIMVRNIDLVAQRGERLELLIDKTENLVDSSVTFKTTSRNLARAMCMK
notes: pGEX-6p-1; PreScission-cleavable GST tag, not cleaved for the pull-down; also called GST-VAMP-7 SNARE motif; source: E. coli BL21 DE3, purified (glutathione Sepharose 4B, eluted with glutathione); not shown: GST, N-terminal, kept
Take B1: the binding result in experiment [1] and in experiment [2] was “binds” each time.
